Measured values: patent publication US20180318386A1, “PEPTIDES AND METHODS OF TREATING ENDOMETRIOSIS USING THE SAME” (BIOINCEPT, LLC, priority 2014, published 2018)

Columns and labels:
Assay in all cases: PIF affinity resin pull-down, CD4+ cell lysate, LC-MS/MS count
[1] = molecular target: Glucosidase 2 subunit beta (human) (UniProt P14314)
[2] = molecular target: Serum deprivation-response protein (human) (UniProt O95810)
Cofilin-1 (human) = Cofilin-1 (human) (UniProt P23528)
[3] = molecular target: Isoform 2 of Protein SET (human) (UniProt Q01105)
Serum albumin (human) = Serum albumin (human) (UniProt P02768)
[4] = molecular target: Acidic leucine-rich nuclear phosphoprotein 32 family member A (human) (UniProt P39687)
[5] = molecular target: Tropomyosin alpha-4 chain (human) (UniProt P67936)
[6] = molecular target: Isoform 2 of Heat shock protein HSP 90-alpha (human) (UniProt P07900)
[7] = molecular target: Cartilage oligomeric matrix protein (human) (UniProt P49747)
Thrombospondin-1 (human) = Thrombospondin-1 (human) (UniProt P07996)
Thymosin alpha-1 (human) = Thymosin alpha-1 (human) (UniProt P06454)
Calreticulin (human) = Calreticulin (human) (UniProt P27797)
Thrombospondin-4 (human) = Thrombospondin-4 (human) (UniProt P35443)
[8] = molecular target: Serine/arginine-rich-splicing factor 2 (human) (UniProt Q01130)
[9] = molecular target: Serine/arginine-rich-splicing factor 1 (human) (UniProt Q07955)
[10] = molecular target: 14-3-3 protein zeta/delta (human) (UniProt P63104)
Chain of 14-3-3 protein zeta/delta (human) (P63104 whole entry, stated change not applied): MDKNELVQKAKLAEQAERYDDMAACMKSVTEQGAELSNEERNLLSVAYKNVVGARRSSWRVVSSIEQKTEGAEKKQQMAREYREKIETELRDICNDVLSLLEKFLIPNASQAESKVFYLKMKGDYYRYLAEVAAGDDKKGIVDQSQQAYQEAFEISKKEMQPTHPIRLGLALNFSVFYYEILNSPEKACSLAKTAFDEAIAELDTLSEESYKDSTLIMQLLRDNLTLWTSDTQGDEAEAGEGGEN

Chain of Serine/arginine-rich-splicing factor 1 (human) (Q07955 2-248 limits assumed): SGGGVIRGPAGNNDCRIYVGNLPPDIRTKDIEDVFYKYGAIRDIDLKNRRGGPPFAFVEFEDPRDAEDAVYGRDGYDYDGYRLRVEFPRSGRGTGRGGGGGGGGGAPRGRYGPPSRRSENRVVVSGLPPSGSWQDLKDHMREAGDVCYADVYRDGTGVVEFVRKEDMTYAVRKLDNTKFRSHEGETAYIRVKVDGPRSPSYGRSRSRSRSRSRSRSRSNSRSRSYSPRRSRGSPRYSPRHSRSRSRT
Chain of Serine/arginine-rich-splicing factor 2 (human) (Q01130 2-221 limits assumed): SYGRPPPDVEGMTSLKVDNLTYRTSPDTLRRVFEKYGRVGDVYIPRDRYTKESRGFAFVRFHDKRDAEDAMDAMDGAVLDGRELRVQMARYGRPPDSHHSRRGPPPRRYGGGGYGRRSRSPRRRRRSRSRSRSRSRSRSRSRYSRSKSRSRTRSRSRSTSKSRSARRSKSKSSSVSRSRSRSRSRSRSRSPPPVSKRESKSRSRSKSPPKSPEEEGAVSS
Chain of Serum deprivation-response protein (human) (O95810 2-425 limits assumed): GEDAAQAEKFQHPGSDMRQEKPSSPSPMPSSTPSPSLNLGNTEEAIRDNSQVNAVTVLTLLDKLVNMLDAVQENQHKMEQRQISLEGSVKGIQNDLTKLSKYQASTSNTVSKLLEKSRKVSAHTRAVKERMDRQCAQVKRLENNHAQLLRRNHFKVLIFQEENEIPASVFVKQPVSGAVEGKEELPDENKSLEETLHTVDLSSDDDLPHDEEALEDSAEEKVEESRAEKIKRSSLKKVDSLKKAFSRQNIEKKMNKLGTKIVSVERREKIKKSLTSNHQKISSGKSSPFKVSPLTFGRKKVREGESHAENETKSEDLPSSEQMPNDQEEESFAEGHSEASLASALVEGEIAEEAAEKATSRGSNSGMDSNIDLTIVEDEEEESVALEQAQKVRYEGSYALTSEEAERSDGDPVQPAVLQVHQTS
Chain of Cofilin-1 (human) (P23528 2-166 limits assumed): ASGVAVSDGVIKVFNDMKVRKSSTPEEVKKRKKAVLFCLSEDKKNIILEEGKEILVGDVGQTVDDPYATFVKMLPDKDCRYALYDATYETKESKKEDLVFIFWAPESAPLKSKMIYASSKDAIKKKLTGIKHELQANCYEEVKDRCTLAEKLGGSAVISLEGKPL
Chain of Thymosin alpha-1 (human) (P06454 other isoform, or with tags, fused parts or gaps limits assumed): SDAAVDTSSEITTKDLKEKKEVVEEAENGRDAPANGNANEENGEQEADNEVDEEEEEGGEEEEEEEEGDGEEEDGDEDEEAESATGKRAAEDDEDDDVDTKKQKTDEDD
Chain of Acidic leucine-rich nuclear phosphoprotein 32 family member A (human) (P39687 whole entry): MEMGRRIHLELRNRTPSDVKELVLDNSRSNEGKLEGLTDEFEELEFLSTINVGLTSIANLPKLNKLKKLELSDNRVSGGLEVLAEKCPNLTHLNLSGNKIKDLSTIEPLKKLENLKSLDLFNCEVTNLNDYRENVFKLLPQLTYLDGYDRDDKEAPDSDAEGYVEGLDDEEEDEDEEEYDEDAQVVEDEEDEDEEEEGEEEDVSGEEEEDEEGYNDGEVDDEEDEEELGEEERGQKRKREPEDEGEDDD
Chain of Isoform 2 of Protein SET (human) (Q01105 other isoform, or with tags, fused parts or gaps limits assumed): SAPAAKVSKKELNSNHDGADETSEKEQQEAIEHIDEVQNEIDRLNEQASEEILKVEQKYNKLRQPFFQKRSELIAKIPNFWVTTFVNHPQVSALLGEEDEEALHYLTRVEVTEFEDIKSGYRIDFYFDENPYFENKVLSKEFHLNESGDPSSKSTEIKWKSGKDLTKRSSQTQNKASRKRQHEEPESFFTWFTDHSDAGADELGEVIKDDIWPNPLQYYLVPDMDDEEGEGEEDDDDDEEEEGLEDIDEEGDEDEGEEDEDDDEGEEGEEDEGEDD
Chain of Tropomyosin alpha-4 chain (human) (P67936 2-248 limits assumed): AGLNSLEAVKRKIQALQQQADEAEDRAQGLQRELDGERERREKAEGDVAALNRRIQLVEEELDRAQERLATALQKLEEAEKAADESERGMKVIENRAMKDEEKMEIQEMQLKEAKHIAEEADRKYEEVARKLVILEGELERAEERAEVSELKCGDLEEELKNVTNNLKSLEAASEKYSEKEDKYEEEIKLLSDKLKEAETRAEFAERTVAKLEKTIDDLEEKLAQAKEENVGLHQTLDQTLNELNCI
Chain of Thrombospondin-4 (human) (P35443 27-961 limits assumed): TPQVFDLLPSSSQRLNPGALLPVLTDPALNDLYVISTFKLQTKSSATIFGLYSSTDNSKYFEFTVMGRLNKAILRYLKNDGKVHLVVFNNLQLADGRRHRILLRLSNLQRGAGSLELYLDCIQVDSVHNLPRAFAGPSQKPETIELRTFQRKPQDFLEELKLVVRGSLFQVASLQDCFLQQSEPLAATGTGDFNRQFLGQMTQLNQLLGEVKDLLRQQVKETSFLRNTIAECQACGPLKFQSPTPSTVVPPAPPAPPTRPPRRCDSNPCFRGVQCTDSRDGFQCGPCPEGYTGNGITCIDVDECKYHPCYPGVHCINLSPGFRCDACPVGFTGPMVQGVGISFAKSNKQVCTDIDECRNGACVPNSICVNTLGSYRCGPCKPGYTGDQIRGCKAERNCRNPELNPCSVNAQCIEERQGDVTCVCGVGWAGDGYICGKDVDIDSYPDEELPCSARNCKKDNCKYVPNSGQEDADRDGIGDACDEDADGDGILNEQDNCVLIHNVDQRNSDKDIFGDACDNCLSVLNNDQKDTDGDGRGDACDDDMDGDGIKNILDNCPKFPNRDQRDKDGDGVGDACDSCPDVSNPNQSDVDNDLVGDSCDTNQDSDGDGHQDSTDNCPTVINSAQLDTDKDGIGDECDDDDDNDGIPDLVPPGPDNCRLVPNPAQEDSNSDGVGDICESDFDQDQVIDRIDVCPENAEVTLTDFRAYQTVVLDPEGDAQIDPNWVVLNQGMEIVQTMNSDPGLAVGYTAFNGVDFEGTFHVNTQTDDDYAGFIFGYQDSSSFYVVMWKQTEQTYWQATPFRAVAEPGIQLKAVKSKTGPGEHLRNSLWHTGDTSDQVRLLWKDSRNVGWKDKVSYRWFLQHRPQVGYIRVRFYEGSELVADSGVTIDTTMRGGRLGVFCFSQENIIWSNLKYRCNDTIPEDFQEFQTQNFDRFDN
Chain of Glucosidase 2 subunit beta (human) (P14314 other isoform, or with tags, fused parts or gaps limits assumed): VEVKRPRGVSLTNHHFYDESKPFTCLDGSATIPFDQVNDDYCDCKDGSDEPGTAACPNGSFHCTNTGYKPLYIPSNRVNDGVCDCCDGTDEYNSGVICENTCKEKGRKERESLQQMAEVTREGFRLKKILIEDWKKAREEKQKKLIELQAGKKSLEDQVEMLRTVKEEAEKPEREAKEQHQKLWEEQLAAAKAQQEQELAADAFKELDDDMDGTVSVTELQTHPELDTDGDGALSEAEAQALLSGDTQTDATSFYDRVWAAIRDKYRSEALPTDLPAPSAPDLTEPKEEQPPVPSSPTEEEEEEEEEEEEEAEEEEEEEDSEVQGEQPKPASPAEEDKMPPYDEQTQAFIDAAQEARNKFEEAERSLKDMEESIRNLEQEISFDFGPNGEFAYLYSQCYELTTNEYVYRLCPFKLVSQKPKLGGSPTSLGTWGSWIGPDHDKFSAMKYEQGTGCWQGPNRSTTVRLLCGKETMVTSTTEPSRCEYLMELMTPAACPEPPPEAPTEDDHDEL
Chain of Calreticulin (human) (P27797 18-417 limits assumed): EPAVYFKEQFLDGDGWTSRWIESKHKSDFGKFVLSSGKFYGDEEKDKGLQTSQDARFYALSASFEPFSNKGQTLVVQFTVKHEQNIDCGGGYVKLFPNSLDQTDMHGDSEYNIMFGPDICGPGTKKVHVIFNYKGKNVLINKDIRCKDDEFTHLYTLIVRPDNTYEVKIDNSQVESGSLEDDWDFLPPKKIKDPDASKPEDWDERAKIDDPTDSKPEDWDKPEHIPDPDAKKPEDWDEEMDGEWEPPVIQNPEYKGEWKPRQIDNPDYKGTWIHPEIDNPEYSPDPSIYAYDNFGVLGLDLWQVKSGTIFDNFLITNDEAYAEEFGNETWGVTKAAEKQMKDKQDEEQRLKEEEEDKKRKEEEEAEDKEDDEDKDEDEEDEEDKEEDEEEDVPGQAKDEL
Chain of Cartilage oligomeric matrix protein (human) (P49747 21-757 limits assumed): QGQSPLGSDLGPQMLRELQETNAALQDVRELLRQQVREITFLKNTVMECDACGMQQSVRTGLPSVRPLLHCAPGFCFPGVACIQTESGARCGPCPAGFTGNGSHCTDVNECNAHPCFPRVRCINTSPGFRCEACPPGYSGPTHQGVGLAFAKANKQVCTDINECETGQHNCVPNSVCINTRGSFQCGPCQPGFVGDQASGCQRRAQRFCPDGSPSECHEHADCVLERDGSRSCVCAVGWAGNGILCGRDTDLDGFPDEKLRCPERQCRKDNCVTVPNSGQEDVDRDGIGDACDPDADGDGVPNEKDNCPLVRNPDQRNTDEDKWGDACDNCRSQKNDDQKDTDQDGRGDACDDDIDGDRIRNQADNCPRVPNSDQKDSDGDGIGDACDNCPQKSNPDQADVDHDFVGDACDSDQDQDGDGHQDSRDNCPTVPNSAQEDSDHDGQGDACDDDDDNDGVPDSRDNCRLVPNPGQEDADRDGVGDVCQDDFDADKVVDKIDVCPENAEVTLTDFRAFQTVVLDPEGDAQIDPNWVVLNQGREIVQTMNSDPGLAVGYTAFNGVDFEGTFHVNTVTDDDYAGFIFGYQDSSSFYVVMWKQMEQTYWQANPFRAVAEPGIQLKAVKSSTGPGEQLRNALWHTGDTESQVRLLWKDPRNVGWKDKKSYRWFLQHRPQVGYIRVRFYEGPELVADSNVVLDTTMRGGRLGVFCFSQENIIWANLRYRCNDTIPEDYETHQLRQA

**Q.** Which Ave [1] does the source give for “PIF15 affinity resin (Cys-C6 spacer-PIF15 conjugated to agarose) (peptide)” here?
**A.** 1

**Q.** And the Inject 1 [1]?
**A.** 1

**Q.** What about the Inject 2 [1] of the same substance?
**A.** 1

**Q.** What about the Inject 3 [1] of the same substance?
**A.** 1

**Q.** And the Ave [2]?
**A.** 2

**Q.** And the Inject 1 [2]?
**A.** 2

**Q.** What about the Inject 2 [2] of the same substance?
**A.** 2

**Q.** What about the Inject 3 [2] of the same substance?
**A.** 2

**Q.** And the Ave (Cofilin-1 (human))?
**A.** 1

**Q.** And the Inject 1 (Cofilin-1 (human))?
**A.** 1

**Q.** What about the Inject 2 (Cofilin-1 (human)) of the same substance?
**A.** 1

**Q.** What about the Inject 3 (Cofilin-1 (human)) of the same substance?
**A.** 1

**Q.** What about the Ave [3] of the same substance?
**A.** 4

**Q.** And the Inject 1 [3]?
**A.** 3

**Q.** And the Inject 2 [3]?
**A.** 4

**Q.** What about the Inject 3 [3] of the same substance?
**A.** 4

**Q.** And the Ave (Serum albumin (human))?
**A.** 8

**Q.** And the Inject 1 (Serum albumin (human))?
**A.** 4

**Q.** And the Inject 2 (Serum albumin (human))?
**A.** 7

**Q.** What about the Inject 3 (Serum albumin (human)) of the same substance?
**A.** 12

**Q.** And the Ave [4]?
**A.** 1

**Q.** And the Inject 1 [4]?
**A.** 1

**Q.** What about the Inject 2 [4] of the same substance?
**A.** 1

**Q.** And the Inject 3 [4]?
**A.** 1

**Q.** What about the Ave [5] of the same substance?
**A.** 4

**Q.** And the Inject 1 [5]?
**A.** 4

**Q.** And the Inject 2 [5]?
**A.** 4

**Q.** And the Inject 3 [5]?
**A.** 4

**Q.** And the Ave [6]?
**A.** 4

**Q.** What about the Inject 1 [6] of the same substance?
**A.** 4

**Q.** And the Inject 2 [6]?
**A.** 4

**Q.** And the Inject 3 [6]?
**A.** 4

**Q.** What about the Ave [7] of the same substance?
**A.** 10

**Q.** What about the Inject 1 [7] of the same substance?
**A.** 10

**Q.** And the Inject 2 [7]?
**A.** 10

**Q.** And the Inject 3 [7]?
**A.** 11

**Q.** And the Ave (Thrombospondin-1 (human))?
**A.** 6

**Q.** And the Inject 1 (Thrombospondin-1 (human))?
**A.** 6

**Q.** What about the Inject 2 (Thrombospondin-1 (human)) of the same substance?
**A.** 6

**Q.** What about the Inject 3 (Thrombospondin-1 (human)) of the same substance?
**A.** 6

**Q.** And the Ave (Thymosin alpha-1 (human))?
**A.** 5

**Q.** And the Inject 1 (Thymosin alpha-1 (human))?
**A.** 4

**Q.** And the Inject 2 (Thymosin alpha-1 (human))?
**A.** 5

**Q.** And the Inject 3 (Thymosin alpha-1 (human))?
**A.** 7

**Q.** And the Ave (Calreticulin (human))?
**A.** 4

**Q.** What about the Inject 1 (Calreticulin (human)) of the same substance?
**A.** 4

**Q.** What about the Inject 2 (Calreticulin (human)) of the same substance?
**A.** 4

**Q.** What about the Inject 3 (Calreticulin (human)) of the same substance?
**A.** 4

**Q.** And the Ave (Thrombospondin-4 (human))?
**A.** 3

**Q.** And the Inject 1 (Thrombospondin-4 (human))?
**A.** 3

**Q.** And the Inject 2 (Thrombospondin-4 (human))?
**A.** 3

**Q.** And the Inject 3 (Thrombospondin-4 (human))?
**A.** 3

**Q.** And the Ave [8]?
**A.** 2

**Q.** And the Inject 1 [8]?
**A.** 1

**Q.** What about the Inject 2 [8] of the same substance?
**A.** 2

**Q.** And the Inject 3 [8]?
**A.** 3

**Q.** What about the Ave [9] of the same substance?
**A.** 2

**Q.** And the Inject 1 [9]?
**A.** 2

**Q.** What about the Inject 2 [9] of the same substance?
**A.** 2

**Q.** And the Inject 3 [9]?
**A.** 2

**Q.** What about the Ave [10] of the same substance?
**A.** 3

**Q.** And the Inject 1 [10]?
**A.** 3

**Q.** What about the Inject 2 [10] of the same substance?
**A.** 3

**Q.** What about the Inject 3 [10] of the same substance?
**A.** 3
